# Assay results as given in patent US8349318B2, “Use of specifically engineered enzymes to enhance the efficacy of prodrugs” (The Board of Trustees of the University of Illinois, priority 2008, dated 2013).
# Like-named read-outs stand apart in the source and are kept apart here.
# Experiments:
# [1] = Kinetic characterization of dCK variants, substrate gemcitabine; assay type: biochemical; conditions: for kobs Gem: nucleoside concentration of 200 μM, ATP 1 mM; for rate of phosphorylation, Gem: Table 8, nucleoside 200 mM, ATP 1 μM [sic]; for Rel kobs (Gem): relative to WT
# [2] = Kinetic characterization of dCK variants, substrate D-dT; assay type: biochemical; conditions: for rate of phosphorylation, D-dT: Table 8, nucleoside 200 mM, ATP 1 μM [sic]; for kobs D-dT: nucleoside concentration of 200 μM, ATP 1 mM; for Rel kobs (D-dT): relative to WT
# [3] = Kinetic characterization of dCK variants, substrate D-dC; assay type: biochemical; conditions: for rate of phosphorylation, D-dC: Table 8, nucleoside 200 mM, ATP 1 μM [sic]; for kobs D-dC: nucleoside concentration of 200 μM, ATP 1 mM; for Rel kobs (D-dC): relative to WT
# [4] = Kinetic characterization of dCK variants, substrate L-dT; assay type: biochemical; conditions: for rate of phosphorylation, L-dT: Table 8, nucleoside 200 mM, ATP 1 μM [sic]; for kobs L-dT: nucleoside concentration of 200 μM, ATP 1 mM; for Rel kobs (L-dT): relative to WT
# [5] = Kinetic characterization of dCK variants, substrate D-dA; assay type: biochemical; conditions: for kobs D-dA: nucleoside concentration of 200 μM, ATP 1 mM; for Rel kobs (D-dA): relative to WT
# [6] = Kinetic characterization of dCK variants, substrate D-dG; assay type: biochemical; conditions: for rate of phosphorylation, D-dG: Table 8, nucleoside 200 mM, ATP 1 μM [sic]; for kobs D-dG: nucleoside concentration of 200 μM, ATP 1 mM; for Rel kobs (D-dG): relative to WT
# [7] = Kinetic characterization of dCK variants, substrate AraC; assay type: biochemical; conditions: for kobs AraC: nucleoside concentration of 200 μM, ATP 1 mM; for Rel kobs (AraC): relative to WT
# [8] = Iyidogan, et al., 2008; read-out: Km for D-dT; cited from earlier work
# [9] = McSorley et al., 2008; cited from earlier work
# [10] = biological target: T1, Wild Type dCK (Homo sapiens, UniProt P27707); assay: Steady-state kinetic (colorimetric, enzyme-coupled) assay of nucleoside phosphorylation by wild type dCK; conditions: for Km / kcat: Wild Type dCK, 0.4 μM dCK, 1 mM ATP.Mg, 37° C.
# [11] = system: HL60 cell line; assay: Apoptosis assay (Annexin V and PI staining) in CD33 positive HL60 cells; assay type: cell-based, human; conditions: HL60, AraC at 1 μM, after 96 hours
# Procedure: The HuM195 antibody will only bind and internalize to cells expressing CD33. Thus, the HL60 cell line (derived from AML cells) and the NB4 cell line, which are CD33 positive, were used to test the activity of the HuM195-dCK system in live cells. The cells were treated with AraC, the HuM195-dCK conjugate, or the combination of HuM195-dCK and the AraC. Annexin V and propidium iodide (PI) staining was used to identify apoptotic cells. […] The combination of AraC with the conjugate results in 20% more killing than AraC alone.
# [12] = system: parent 293 cells; assay: Proliferation of parental 293 cells treated with nucleoside analogs; assay type: cell-based, human
# Procedure: Next, whether the dCK-S74E/R104M/D133A variant could inhibit cell growth in the presence of NAs including BVdU was tested. Human 293 cells were stably transfected with a recombinant expression construct encoding the dCK-S74E/R104M/D133A protein. The proliferative capacity of the stably transfected cell line was compared to the parental 293 cells after treating the cells with several nucleoside analogs such as AraC, gemcitabine, and BVdU. Since some of the nucleosides were first dissolved in the solvent DMSO, equal amounts of DMSO were used as control.
# [13] = system: NB4 cell line; assay: Apoptosis assay in CD33 positive NB4 cells; assay type: cell-based; conditions: NB4, AraC 250 nM, after 96 hours
# Procedure: The NB4 cells were also treated with AraC, the HuM195-dCK conjugate, or the combination of HuM195-dCK and the AraC, and an apoptosis assay was performed as above. The AraC dose used, however, was decreased from 1000 nM to 250 nM. The results were similar to those observed in the HL60 cells (FIG. 8). The conjugate with AraC (right bars) achieve ˜65% cell killing after 96 hours, whereas AraC alone was below 40%.
# [14] = Kinetic analysis of dCK variants, substrate L-dU; assay type: biochemical; conditions: Table 8; nucleoside 200 mM, ATP 1 μM [sic]
# Procedure: In a separate experiment, those mutant dCKs were analyzed in the presence of a nucleoside substrate at a concentration of 200 mM, and a phosphoryl donor ATP at a concentration of 1 μM.
# [15] = biological target: T2, A100V/R104M/D133A-dCK (Homo sapiens, UniProt P27707, A100V/D133A/R104M); assay: Steady-state kinetic assay of nucleoside phosphorylation by A100V/R104M/D133A-dCK; assay type: biochemical
# T2 construct: His-tag (N); made in house
# [16] = biological target: T1, Wild Type dCK; design: The electron density for dCK extended to the last residue (Leu260), while the N-terminus (residues 1 to 19) was flexible; His-tag (N); made in house; host or cells: E. coli BL21(DE3); conditions: Lotfi et al., 1999; Mansson et al., 2003; cited from earlier work
# [17] = system: SKBR-3; assay: MTS cytotoxicity assay in breast cancer-derived cell line; assay type: cell-based, human; conditions: SKBR-3, 96 hours
# Procedure: The cells were then exposed to varying amount of BVdU for 96 hours. […] Cell viability was measured using the MTS cytotoxicity assay according to the manufacturer's instructions (Promega). […] MTS was reduced by cellular dehydrogenase into formazan, which is soluble in tissue culture medium. […] Since the production of formazan is proportional to the number of living cells, the intensity of the produced color is a good indication of the viability of the cells.
Molecule,kobs Gem [1] [s⁻¹],"rate of phosphorylation, D-dT [2] [s⁻¹]",kobs D-dT [2],"rate of phosphorylation, D-dC [3] [s⁻¹]",kobs D-dC [3],"rate of phosphorylation, L-dT [4] [s⁻¹]",kobs L-dT [4] [s⁻¹],kobs D-dA [5] [s⁻¹],"rate of phosphorylation, D-dG [6] [s⁻¹]",kobs D-dG [6] [s⁻¹],kobs AraC [7],"rate of phosphorylation, Gem [1] [s⁻¹]",also measured
"R104F/D133A: human dCK mutant, phenylalanine at position 104, D133A",<0.005,0.02,<0.005 s⁻¹,0.02,<0.005 s⁻¹,0.02,<0.005,<0.005,0.02,<0.005,<0.005 s⁻¹,,
"R104K/D133A: human dCK mutant, lysine at position 104, D133A",<0.005,,<0.005 s⁻¹,,<0.005 s⁻¹,,<0.005,<0.005,,<0.005,<0.005 s⁻¹,,
"R104V/D133A: human dCK mutant, valine at position 104, D133A",<0.005,0.04,<0.005 s⁻¹,0.03,<0.005 s⁻¹,0.05,<0.005,<0.005,0.03,<0.005,<0.005 s⁻¹,,
"WT: wild type human deoxycytidine kinase, SEQ ID NO:1 [reference compound]",0.39 ± 0.01,,0.008 ± 0.001^b sec^−1,0.03,0.03 ± 0.01^b sec^−1,,0.017 ± 0.023,1.19 ± 0.01,0.94,0.94 ± 0.18,0.30 ± 0.04^b sec^−1,0.39,Rel kobs (Gem) [1]: 1.00; Rel kobs (D-dT) [2]: 1; Rel kobs (D-dC) [3]: 1; Rel kobs (L-dT) [4]: 1; Rel kobs (D-dA) [5]: 1; Rel kobs (D-dG) [6]: 1; Rel kobs (AraC) [7]: 1.00; Km [8]: > 3000 µM
dCK S74E: dCK S74E mutant mimicking the Ser74 phosphorylated state [reference compound],,,,,,,,,,,,,increase of the rate of phosphorylation of dC [9]: 11 fold
"Nc1ccn([C@H]2CC[C@@H](CO)O2)c(=O)n1 [ddC, 2′,3′-dideoxycytidine]",,,,,,,,,,,,,Km [10]: 407 µM; kcat [10]: 0.18 s⁻¹
"Nc1ccn([C@@H]2O[C@H](CO)[C@@H](O)[C@@H]2O)c(=O)n1 [Ara-C, 1-β-D-arabinofuranosylcytosine]",,,,,,,,,,,,,cell death (apoptotic cells) [11]: ~50%; inhibition of growth ([12]; 1 μM): no inhibitory effect; cell killing [13]: below 40%
R104Q: human dCK variant of Table 8 with Q at position 104 and unchanged D133,,0.05,,0.07,,0.06,,,0.06,,,0.06,"rate of phosphorylation, L-dU [14]: 0.06 s⁻¹"
"R104L/D133A: modified human dCK, leucine at position 104, alanine at position 133, SEQ ID NO:10",2.04 ± 0.03,2.86,2.86 ± 0.09 s⁻¹,0.27,0.27 ± 0.09 s⁻¹,1.07,1.07 ± 0.09,3.45 ± 0.16,0.3,0.30 ± 0.01,0.64 ± 0.06 s⁻¹,2.04,"Rel kobs (Gem) [1]: 5.20; Km [2]: < 25 µM; Rel kobs (D-dT) [2]: 358; Rel kobs (D-dC) [3]: 9; Rel kobs (L-dT) [4]: 63; Rel kobs (D-dA) [5]: 2.9; Rel kobs (D-dG) [6]: 0.32; Rel kobs (AraC) [7]: 0.35; rate of phosphorylation, L-dU [14]: 2.56 s⁻¹"
"Nc1ccn([C@@H]2O[C@H](CO)[C@@H](O)C2(F)F)c(=O)n1 [gemcitabine, 2′,2′-difluorodeoxycytidine]",,,,,,,,,,,,,"Km [10]: 22 µM; kcat [10]: 0.37 s⁻¹; higher enzymatic efficiency compared to dC ([10]; wild type dCK): ~4 fold; increase in kcat compared to dC ([10]; wild type dCK): 10 fold; inhibition at 1 µM ([12]; Homo sapiens, HEK293, 1 μM, read-out: inhibition of growth): 75%; Km [15]: 50 µM; kcat [15]: 3.52 s⁻¹"
"Nc1nc2c(ncn2[C@H]2C[C@H](O)[C@@H](CO)O2)c(=O)[nH]1 [D-dG, deoxyguanosine]",,,,,,,,,,,,,"kcat, Wild-type ([10]; Table 9): ~2.5 s⁻¹"
"R104I/D133A: modified human dCK, isoleucine at position 104, alanine at position 133, SEQ ID NO:12",0.21 ± 0.08,0.4,0.40 ± 0.01 s⁻¹,0.06,0.06 ± 0.01 s⁻¹,0.19,0.19 ± 0.02,0.21 ± 0.01,0.08,0.08 ± 0.01,0.07 ± 0.01 s⁻¹,0.21,"Rel kobs (Gem) [1]: 0.53; Rel kobs (D-dT) [2]: 50; Rel kobs (D-dC) [3]: 2; Rel kobs (L-dT) [4]: 10; Rel kobs (D-dA) [5]: 0.18; Rel kobs (D-dG) [6]: 0.08; Rel kobs (AraC) [7]: 0.25; rate of phosphorylation, L-dU [14]: 0.4 s⁻¹"
"R104Q/D133A: modified human dCK, glutamine at position 104, alanine at position 133, SEQ ID NO:8",0.17 ± 0.04,0.1,0.10 ± 0.06 s⁻¹,0.08,0.08 ± 0.01 s⁻¹,0.15,0.15 ± 0.02,0.18 ± 0.04,0.06,0.06 ± 0.01,0.18 ± 0.01 s⁻¹,0.17,"Rel kobs (Gem) [1]: 0.43; Rel kobs (D-dT) [2]: 12.5; Rel kobs (D-dC) [3]: 2.7; Rel kobs (L-dT) [4]: 9; Rel kobs (D-dA) [5]: 0.15; Rel kobs (D-dG) [6]: 0.06; Rel kobs (AraC) [7]: 0.60; rate of phosphorylation, L-dU [14]: 0.14 s⁻¹"
"Nc1nc(Cl)nc2c1ncn2[C@@H]1O[C@H](CO)[C@@H](O)[C@@H]1F [clofarabine, 2-chloro-2′-arabino-fluoro-2′-deoxyadenosine]",,,,,,,,,,,,,efficiency as substrate for dCK relative to cladribine [16]: ~3 fold
"O=c1[nH]c(=O)n([C@H]2C[C@H](O)[C@@H](CO)O2)cc1/C=C/Br [BVdU, (E)-5-(2-bromovinyl)-2′-deoxyuridine]",,,,,,,,,,,,,inhibition of growth ([12]; highest tested concentration of 50 μM): did not inhibit the growth; effect on cell viability / proliferation [17]: no detrimental effect
